Laboratory results as given in patent US9422583B2, “Stereospecific carbonyl reductases” (RUTGERS, THE STATE UNIVERSITY OF NEW JERSEY, priority 2009, dated 2016).

Tests used:
[1] = test system: O=C(CO)c1ccccc1; assay: reduction of 2-hydroxyacetophenone with NADPH, apparent kinetic parameters by Lineweaver-Burk plots; format: biochemical, Candida parapsilosis
Experimental: (§1) Since environmental pH value can have an influence on the stereochemistry of enzymatic reactions (Secundo and Phillips, Enzyme Microb. Technol., 19, 487-492 (1996)), the effect of the reaction pH on the activities of SCRs catalyzing 2-hydroxyacetophenone reduction was also investigated. […] Subsequently, the enzymes were evaluated under their individual optimal pH, and apparent kinetic parameters were further measured by double reciprocal Lineweaver-Burk plots at various 2-hydroxyacetophenone concentrations with fixed NADPH concentrations. […] The values are the average of three independent experiments.
(§2) Enzyme Assays. Carbonyl reductase activity was measured by a continuous spectrophotometric assay using 2-hydroxyacetophenone as a substrate. One unit of enzyme activity was defined as the amount of enzyme catalyzing the oxidation of 1 μmol NAD(P)H per min under the assay conditions. The standard assay mixture for the enzyme activity comprised of 0.1 M potassium phosphate buffer (pH 6.5), 0.3 mM NAD(P)H, 0.7 mM 2-hydroxyacetophenone and appropriate enzyme in a total volume of 100 μl. The decrease in the amount of the coenzyme was measured spectrophotometrically at 340 nm (extinction coefficient [ε]=6.22 mM^−1 cm^−1). Protein concentration was determined using Bradford reagents (Bio-Rad) with bovine serum albumin as a standard. The pH dependence of enzyme activity was determined over a pH range of 4.0 to 8.5 using the following buffers: 0.1 M acetate (pH 4.0 to 6.0), 0.1 M sodium phosphate (pH 6.0 to 8.0) and 0.1 M Tris-HCl (pH 8.0 to 8.5).

[2] = Carbonyl reductase activity and kinetic parameters, continuous spectrophotometric assay (NAD(P)H decrease at 340 nm); format: biochemical; conditions: reduction of 2-hydroxyacetophenone
Experimental: Catalytic Properties of Recombinant SCRs. The enzymatic activities of SCR1, SCR2, and SCR3 were investigated for reduction of 2-hydroxyacetophenone.
as §1, §2

[3] = Substrate specificity of SCRs with NADPH as cofactor; format: biochemical
Text: The substrate specificity of SCRs was investigated under the same conditions as described above. Various carbonyl compounds including aryl ketones, aliphatic ketones, α- and β-ketone esters were used as the substrates with the cofactor of NADPH.

[4] = other: pH 5.0 (optimum pH), NADPH as cofactor at fixed concentration, average of three independent experiments
[5] = other: pH 4.5 (optimum pH), NADPH as cofactor
[6] = other: pH 6.0 (optimum pH), NADPH as cofactor at fixed concentration, average of three independent experiments
[7] = other: pH 5.5 (optimum pH), NADPH as cofactor at fixed concentration, average of three independent experiments
[8] = NADPH as cofactor, at optimum pH of each enzyme
[9] = compared with the other enzyme (SCR1 vs SCR3)

Candida parapsilosis stereospecific carbonyl reductase SCR1, SEQ ID NO:4 (GenBank FJ939565), recombinant with C-terminal His6 tag (Lodderomyces parapsilosis CDC317)
Km [1, 4]: 9.83 mM
Vmax [1, 4]: 42 µmol/min/mg

Candida parapsilosis CPADH, SEQ ID NO:1 (GenBank DQ675534) (Lodderomyces parapsilosis CDC317)
Km [1, 5]: 5.83 mM
Vmax [1, 5]: 18.3 µmol/min/mg

Candida parapsilosis stereospecific carbonyl reductase SCR3, SEQ ID NO:2 (GenBank FJ939564), recombinant with C-terminal His6 tag (Lodderomyces parapsilosis CDC317)
Km [1, 6]: 4.68 mM
Vmax [1, 6]: 32.3 µmol/min/mg

Candida parapsilosis stereospecific carbonyl reductase SCR2, SEQ ID NO:3 (GenBank FJ939563), recombinant with C-terminal His6 tag (Lodderomyces parapsilosis CDC317)
Km [1, 7]: 4.81 mM
Vmax [1, 7]: 8.83 µmol/min/mg

B1: SCR3: stereospecific carbonyl reductase from C. parapsilosis, GenBank FJ939564, recombinant with C-terminal His6 tag (protein, listed as Candida parapsilosis)
chain: MGEIESYCNKELGPLPTKAPTLAKNVLDLFSLKGKVASVTGSSGGIGWAVAEAYAQAGADVAIWYNSHPADEKAEHLQKTYGVRSKAYKCNISDPKSVEETISQQEKDFGTIDVFVANAGIPWADGPVIDLENYDAWNKLINTDINGVFYCAHSIGKIFKKNGKGSLIITASLAGSVVTIPQQQTPYNTAKAACLHLAKSLAVEWAPFARVNTVSPGYFETEINGFADEDMREKWYQLTPLGRMGITEELVGGYLYFASNASTFTTGSDLIIDGGFTCP
modifications: C-terminal His6 tag
pH (optimum pH for each enzyme) ([2]; NADPH as cofactor): 6.0
Specific activity [2, 8]: 4.23 μmol/min mg protein
specificity to p-Cl-2-hydroxyacetophenone [3, 9]: more specific

B2: SCR2: stereospecific carbonyl reductase from C. parapsilosis, GenBank FJ939563, recombinant with C-terminal His6 tag (protein, listed as Candida parapsilosis)
chain: MGEIESYCNKELGPLPTKAPTLSKNVLDLFSLKGKVASVTGSSGGIGWAVAEAYAQAGADVAIWYNSHPADEKAEHLQKTYGVRSKAYKCNISDPKSVEETISQQEKDFGTIDVFVANAGVPWTEGPEINVDNYDSWNKIINLDLNGVYYCAHTVGKIFKKNGKGSLVITSSMSGTIVNVPQLQAAYNAAKAACTHLTKSLAVEWAPFARVNCVSPGYIATEISDFVEKDMKAKWWQLTPLGREGLAQELVGAYLYLASNASTYTTGANLAVDGGYTCP
modifications: C-terminal His6 tag
pH (optimum pH for each enzyme) ([2]; NADPH as cofactor): 5.5
Specific activity [2, 8]: 1.55 μmol/min mg protein
Specific activity ([2]; under the assay conditions): 1.55 µmol/min/mg protein

B3: CPADH: C. parapsilosis enzyme encoded by cpadh gene, GenBank DQ675534, comparison enzyme in Table 1 (protein, listed as Candida parapsilosis)
chain: MGEIESYCNKELGPLPTKAPTLSKNVLDLFSLKGKVASVTGSSGGIGWAVAEAYAQAGADVAIWYNSHPADEKAEHLQKTYGVHSKAYKCNISDPKSVEETISQQEKDFGTIDVFVANAGVTWTQGPEIDVDNYDSWNKIISVDLNGVYYCSHNIGKIFKKNGKGSLIITSSISGKIVNIPQLQAPYNTAKAACTHLAKSLAIEWAPFARVNTISPGYIDTDITDFASKDMKAKWWQLTPLGREGLTQELVGGYLYLASNASTFTTGSDVVIDGGYTCP
pH (optimum pH for each enzyme) ([2]; NADPH as cofactor): 4.5
Specific activity [2, 8]: 2.70 μmol/min mg protein

B4: SCR1: stereospecific carbonyl reductase from C. parapsilosis, GenBank FJ939565, recombinant with C-terminal His6 tag (protein, listed as Candida parapsilosis)
chain: MSKDETISYCNDQLGPLPTTAPKVSDNVTDLFSFKGKVVSVTGSSGGIGWAVAEGFAQAGADVAIWYHSHNADEKAKYLQEKYGVKSIAYGCNIGVAEEVQKTVDQIESDFGKIDVFVANAGIPWTDGPEIDVQDLSKWTKIIDTDLNSVYYCAHAIGPIFRKQGKGSLVITASMSATIVNVPQLQAAYNVAKAGVKHLSKSLAVEWAPFARVNSVSPGYISTNLTTFANPDLQKKWVQLTPLGREGHPKELVGAYLYLASDAATFTTGCDLAVDGGYTVP
modifications: C-terminal His6 tag
pH (optimum pH for each enzyme) ([2]; NADPH as cofactor): 5.0
Specific activity [2, 8]: 5.16 μmol/min mg protein
activity for reduction of ethyl 4-chloro-3-oxobutyrate ([3]; among the tested β-ketoesters): highest activity
activity to m-Cl-2-hydroxyacetophenone [3, 9]: higher activity
